Laboratory results from a protein production outcome set (Wang et al. 2014).

Assay: label from the status in PepcDB records
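Further: failed if final PepcDB status was selected cloned or expressed and not failed if soluble or beyond.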

Sequence	protein production
MSLKVPGALPLLFLAACSHLPAKTPLTAEKPAEKKESEQSRVPSQDLTPSMLFDFLLAETALQRGDTEIGLRTYLKLAKNTQDPRVAQRATEAALQARQPAFALEAAKIWTELDPESIPARQMMAALLVHFDRLDEARPHLEKLLAVAGDKIDDAFMQLNSLLVRSPNKNAIFELVKQLAQPYPDLPEAHFAESQAAWFAERFDIALEEMKKALALRPEWEMAAIYEGRILSRESNARAIEFFDDYLKRYPKANDTRITYARLLLAERDYSKAREQFQKLLTENPDNPDVAIAVGLLSLELQNYDVAESNFKRALELGYRDPGMVRFYLGGISEKKQQIPQALNWYRSVTEGTQFIPAQIKYAILLSRTGKTKEGLHHLQQLPVANDQQRAQVIIAEAQLLRESGAYKKAFQLLSSSLEKLPDSPELLYDRALAAEKIGKADIMEQDLRKLIELRPDHAHAYNALGYGIAEHSSKRLPEALELIEKAIKLSPIDPYIIDSLGWVHYRMGDINQGLSYLRQAFAMNPDPEIAAHLGEVLWVQGMKDEAKEIWQTALKNHPGNEALIGVMKKFMK	failed
MDFPCLWLGLLLPLVAALDFNYHRQEGMEAFLKTVAQNYSSVTHLHSIGKSVKGRNLWVLVVGRFPKEHRIGIPEFKYVANMHGDETVGRELLLHLIDYLVTSDGKDPEITNLINSTRIHIMPSMNPDGFEAVKKPDCYYSIGRENYNQYDLNRNFPDAFEYNNVSRQPETVAVMKWLKTETFVLSANLHGGALVASYPFDNGVQATGALYSRSLTPDDDVFQYLAHTYASRNPNMKKGDECKNKMNFPNGVTNGYSWYPLQGGMQDYNYIWAQCFEITLELSCCKYPREEKLPSFWNNNKASLIEYIKQVHLGVKGQVFDQNGNPLPNVIVEVQDRKHICPYRTNKYGEYYLLLLPGSYIINVTVPGHDPHITKVIIPEKSQNFSALKKDILLPFQGQLDSIPVSNPSCPMIPLYRNLPDHSAATKPSLFLFLVSLLHIFFK	not failed
NNVIGALCVFQDISELVGIKELNERFQKILETSHDLICFIDENRKISYINPTYEKCLNIKSEDVLGKDLMKISPD	failed
MLDPARSFDIIGDVHGCALTLERLLDALGYKRVAGVWRHPRRQALFLGDIVDRGPRIREALHIVHDMVEAGQAFCIMGNHEYNALGWVTPALPGSGKAYVREHTPRHARLIDETLTQFAQHPGDWHDFVNWFYQLPLFIDAGRFRLVHACWDPRLIEPLRQQYPDGRIDEHFIQASAVSGSFADTVCNRLLRGTDMRLPDGLTLTGGDGLTRAFFRTKFWEEDPKTYGDIVFQPDALPEEVASTPLSHSQKNALLRYDEDQPMLFVGHYWRSGRPAPIRANLACLDYSAVLYGKLVAYRLDDETRIDPHKFVWVDVDRPQANQLEHHHHHH	not failed
MMADEEEEVKPILQKLQELVDQLYSFRDCYFETHSVEDAGRKQQDVRKEMEKTLQQMEEVVGSVQGKAQVLMLTGKALNVTPDYSPKAEELLSKAVKLEPELVEAWNQLGEVYWKKGDVAAAHTCFSGALTHCRNKVSLQNLSMVLRQLRTDTEDEHSHHVMDSVRQAKLAVQMDVHDGRSWYILGNSYLSLYFSTGQNPKISQQALSAYAQAEKVDRKASSNPDLHLNRATLHKYEESYGEALEGFSRAAALDPAWPEPRQREQQLLEFLDRLTSLLESKGKVKTKKLQSMLGSLRPAHLGPCSDGHYQSASGQKVTLELKPLSTLQPGVNSGAVILGKVVFSLTTEEKVPFTFGLVDSDGPCYAVMVYNIVQSWGVLIGDSVAIPEPNLRLHRIQHKGKDYSFSSVRVETPLLLVVNGKPQGSSSQAVATVASRPQCE	failed
KNIVVDFTEYNPLHNGHKYCMDFGKSEGLFISVIPGPLERSGRGIPYLVNRHIRAEMALLAGADLVVEGPPMGIMGSGQYMQCLIKIFSALNGDIIPRGYIEEETMERVINSINNGNHIKIKPYNISCIETREKLGEKLEIDNYVIASMSYTIYKLKENFPKWNPKFKFIERIEGISGTKIREGVFNNNFESIKHMLPITTIDVFKNFGDNLSEIILKRNEEMVLDTVNNFDLNKYLPENISEKLNEKEYYESIE	not failed
MTKPSRPDAPGDGRPRRLPGVARCRRDAAGHPPAHRLRWLQLLIWLVPMLAALVSIGLVAGQVRGHGPAITLGFQDGEGIEPGKTPVRYNDVDIGMVTAVRLSTDLSRVLVTVQLNQEAADFATHGTRFWIVRPRAGMSGASGLGTLLSGTYIGADSGGSHEPETQFTGLENPPVVSLRQQGARFVLRGPSLGSVETGSPVYYRHVEVGQVTGTALDKDGAGVTIDVFIEAPYHRYVGRDTQWRHASGLGLRLDAAGLRVNAESFQTMLLGGIAFQPSPGQPAGDAVPDGTVFGLQSGDLDAADGPDGKPSTVVMHFDQSLHGLSVGAAVDFRGVQLGEVTNVGVAFDPKTHTFVMPVTLNLYPDRLGQAFRASSEYGDAAAGKALLRTLVARGLRGQLRTGNLLTNQLYVALDMFPNAPPVQLDLNGTLIALPTIPNTLDDLQAQVADLAKTLDRVPLDQLGTHLGQRLDNARRLFALTDAQLAPQARATLAAARQAFDAAQAIAQSPLLRPADLSRVREQLGQTLRALDTLTDTVAQHPESLVWGPAVDTRTAQSP	failed
MEYGAICTPFIFVVYAKSKYLCVLISNEMGKNKLEKFADMASYPHVFEYPYSAVDNVPFDMKGKWHQEFFGNDHPIVLELGCGRGEYTVGLGRMFPDKNFIAVDIKGSRMWTGATESLQAGMKNVAFLRTNIEIIERFFAAGEVSEIWLTFSDPQMKKATKRLTSTYFMERYRKFLKPDGIIHLKTDSNFMFTYTKYMIEANQLPVEFITEDLYHSDLVDDILSIKTYYEQQWLDRGLNIKYIKFRLPQEGVLQEPDVEIELDPYRSYNRSKRSGLQTSK	failed
MAKWRVAAILSGALLAADARAEALRMLLTQIPGIIEQAPDGASMRGVGIDLMKEVGRRAGVELRFEAYPQARARLLVERQRDACLPVAHLPEQAANFKWSAPLLQMRLVLLARGDDGRQLRSLEQAGGLRVGAMRGTMAAARLKERGVAVEESADYLSGLEKLRLGRLDLWAMLDVGVASLARRLEMPPPRVAWVMDTLDVSFACNRQVDDALIARLDGAIAAMRADGSMARFDLR	failed
PSEPVTDEYLTSVTIGERKPLNDRIQLAEYDLRWPSMFSVAADKIRSALSEKALLVEHVGSTSVPGLAAKLIIDMLLGVTDSADEKSYVLPLEQQGFVLQAREPGWYEHRFFRLKSGDMEWHLHVFSAECEEIDRMLAFRNWLRVHDDDRQRYENVKRTLAARTWKHMQNYADAKSDIVREILGRA	failed
MKIFLDSAITTDIQDRLATEIIDGVTTNPTLIKKSNEDPDVVYKELYDMRVKDISIEVRGDTAQELAANGILYGRKYGEVATIKLPCTVEGIKACKKLSILGHKTNMTLVFSVSQAILCAKAGATYVSPFVGRLDQIGEDGIQLIRDISRVYCVSGVKTQILAASIRSPKQAEDAYLAGADICTLPVKVFDQMFKHTLTDDGLKQFAIDFGINF	failed
MSDKGTDTKDKEKKAGKKKTASDRIEVRQSGVHGKGVYAIGQIAEGERVIEYKGEHISWKEALKRHPHDPNDPNHTFYFSLDDGDVIDAKFGGNRARWINHACDPNCEAREKKGRVFIHALRDIEPGEELFYDYGLVIDARYTKKLKQEYECRCGSPKCRGTMLAPKDKK	failed
MGSSARFRGRTDTMLLTRFNPENGTITVLSIPRDTRVEIPGYGTSKINAANVYGDVELTVQVVSQTLNYTPIDRYIRINTDAFRELVDLVGGVEVNVPKRMVYTDHTQKLYIDLQPGLQTLNGEQAEGFVRFRYDELGDIGRAQRQQLLIKALQEKLANPVMLTQLPKLYSVLQKYVDTDLTFAELMAIAQFSLRIQPDNLHLILLPGHFSGDGYGTSYWLPDYDRIDRVVAEHFSDRPSKLVDQRGSETGTLRIALQNASGSSGAAQDMADFLARHGYTNVLISEDWYQQTSETEIVAQQGDLGAAQVIRSVLGMGRVSANSTGVLSSDITIRIGRDWAAVLHLEHHHHHH	failed
MDKAATPWLRYLEELRPHLQGRDHRGRKGSLRWLEALMAERGGRAGTVRNILYKDLGSPEEKERLYRILADLYREAGLKPPPPPAELFLKSARKVLGRDKRRIFRHFLRELEAGRRPQVVVVGGAATGKGVLLSALRQALAAFPGKTPFVLNLGGELAQALIPLAEELGVEAETLLSQLSPTQPYILQGALQQEFLAALAQALNRAGRPLLLRAEAQGTLEGLPLRGPDGGQRGLSAWLEPFLRSLEIPYLAALTEPPPTLPYQPLSPPSREEARRFVRERLPHLPPERLEALVNQAGRNFGELSRLVLLEAAKHDPETPLQDDPALRPLLEALAAFSPEADPAFPAALLERALNRPLERLSQAEKALLEWVGDGLVRPSLRSLLPQEAPRELHRLALEFFPRENLFRRLYHARKAGERRILLDLLTEDPARLALLPGLWQEARSWPKEDREALAAALVRYRAVLGQYAHPEVEEALALLAQAEDPRLRASARIKAAEAKADAGLYKEAEALLPPEEEFPLLDETARAEGLLVRAAVERWKGDYEKAARYAERAAELSVAPFLKDRVQLWRGLVAKDLGRYEEALTALAQVGHDPLLLGRARYQMGDLLMRLGSPEARARMEEGLKALEEAGAPQDEVARVRARYATLLRRLGLYPEAEAAIRRALEEALDPFTRARVESEAGILQAAQGRPLEALALLSRAEAYFRTTGERPKEARYRHLRTLFRLAAAYLLLETGTPYRPPLLGGLKAPEAERLLWDLLAKIPEEATDRYTALRLDAESLLALLLPPKEARERLRPFLGLANPYLRAQARLGYAEALLREGAYGEALAQTVALPPLLDPGLKAQAKATEVLALLALGEEEAAWQKLVEAKQSGLPEPFRLQLGRAVGRAHPGLAARLPPTPLAPPEALGLHLANPD	failed
MGWHCVFFQMDLRYCSVQTLARTHQVMRELVQASAFVELNRFFDRLEAQWRQAPPGEFPAYLAAIDGHMLLDQENQGDRALSQVLRAWIDACPRAYHPQVVMGMHCFHRACQVQVDGPRNAARLLAVAQICESATAHLLRAMDRSAHPVAAAIGMLRISAQFHEPGWLLQLFQGEPARFRPSAHADVEVQEAAAPLLVRHGLLPLAELPQSLPRYLGKRVDHENEDPRYYWLRHALIARPGCFEAIQALAVYLLPRWGGSLDAFELLVNGPLCATWDERLRNALRWMAVEGRLKLPQADKVQAVADWQHVFEDWSQRPLRPRERAVVLAWRGALRSRVSGDHAGAMRDFGASLACNADLGAIRAMGVPFRCLAELILRDGMADEKQLLHGAIERLCDGRSHAAACALRAVGHRFGLWALPRSAEQARLWLQRAVSRQCAGQAPGFEVLEVARLLWAANRHEVACYLYERCAELNLPGAALALYELHHGGLANTPAHYLDDEAAGYWLQRAVEAGSRQAKYNLACLRMDGDEDLNERSAMLAVRRLLVDALGNGQTNACARLHLGILLRRFGEAQERSEAVAYLLSLVEHPDPWLAGRASAELGLAWMQGRGTRKQSRFAAIQWVNRAASLQPRDSAIGDIQAQILNSHSRVKTLFTQCGAALFRGTLHASELPPKQAFTHAESLRVKPASDGLRRAHKPRLSGPMQG	failed
MIKIAIVGFGTVGQGVAELLIRKREEIEKAIGEFKVTAVADSKSSISGDFSLVEALRMKRETGMLRDDAKAIEVVRSADYDVLIEASVTRVDGGEGVNYIREALKRGKHVVTSNKGPLVAEFHGLMSLAERNGVRLMYEATVGGAMPVVKLAKRYLALCEIESVKGIFNGTCNYILSRMEEERLPYEHILKEAQELGYAEADPSYDVEGIDAALKLVIIANTIGVKASYEDVEVTGITQITPEAFQVAAEKGYTIRLIAEVSREKLKVSPRLVPFHHPLAIKGTMNAAMFKTDTAGSIFVAGRGAGKEETASAILSDLYEIYAGPR	failed
